What was measured:
wild-type MDCK cells = assay: Branching tubule formation assay in 3-D collagen gel; type: cell-based, dog
Description: From the total amount of cysts in the field, the percentage of cysts with long branches was calculated. Only branches with lengths of more than two cyst diameters were counted.
Trypsinized cells were mixed 1:3 with collagen type I solution and plated. MEM with 10% FCS was overlaid on the gels with or without GDNF (Cephalon Inc. or R&D Systems, Inc.) or 50 ng/ml HGF. Cells in collagen were cultured for 3 days; GDNF-containing medium was changed daily. For quantification, cells were cultured for 3 days, fixed by 3% glutaraldehyde in PBS and counted under a light microscope.
To avoid the effect of possible contamination of GDNF preparation, recombinant GDNF from two different sources were tested. One tested GDNF was expressed in baculovirus-infected insect cells (Cephalon Inc.), the other was expressed in mouse myeloma cell line NSO (R&D Systems, Inc.).

[1] = system: GFRα1-expressing, RET-deficient MDCK cells; assay: Boyden chamber cell migration and chemotaxis assay; type: cell-based, dog
Description: (§1) FIG. 3A: In Boyden chamber chemotaxis assays, mock-transfected, GFRα1-expressing and RET/GFRα1-expressing cells were exposed to GDNF, and wild-type MDCK to HGF. The number of cells was counted as described in Materials and Methods. +/+=GDNF at 100 ng/ml or HGF at 50 ng/ml was added to both chambers to assay chemokinesis. Each result represents the mean±SEM (n=3). For each case, p<0.001.
(§2) 5×10^4 MDCK cells (GFRα1-, RET/GFRα1-expressing and mock transfected) were suspended in 300 µl of MEM with 10% FCS and seeded into 24-well cell culture inserts with the filters (Boyden chambers), pore size 8 μm (Falcon). The assay was done as described (Tang et al., 1998). Briefly, GDNF or HGF was added to the upper, or both the upper and lower chambers at the marked concentrations. After 48 h incubation, non-migrated cells on the upper surface of the filters were scrapped. Membranes with the cells on the lower surface were washed with PBS, fixed by 3% glutaraldehyde in PBS, stained with May-Grünwald Giemsa (MGG) solution, dehydrated and mounted on the slides. Cells in eight fields of each membrane were counted under the light microscope (Magnification=100×). The average and standard error of the mean were calculated. Statistical significance of the differences was estimated by t-test.
(§3) Guided migration of cells towards a chemoattractant is referred to as chemotaxis, whereas enhanced cellular motility is called chemokinesis. Chemotaxis can be tested in the Boyden dual chamber assay by adding the test substance to the lower chamber only, and chemokinesis by adding test substance to both upper and lower chambers. […] Similarly, the chemotactic migration of RET/GFRα1co-expressing MDCK cells is stimulated by GDNF in the presence of soluble GFRα1 (Tang et al., 1998).

[2] = system: RET/GFRα1-expressing MDCK cells; assay: Boyden chamber cell migration and chemotaxis assay; type: cell-based, dog
Description: as §1, §2, §3

[3] = system: GFRα1-expressing, RET deficient MDCK cells; assay: Chemoattraction assay on collagen matrix with soaked agarose beads; type: cell-based, dog; conditions: beads soaked in GDNF 10 ng/μl; collagen I; 3 days
Excerpt: (§4) FIG. 3B: Chemoattraction assay on collagen matrix. Only RET/GFRα1-expressing cells migrate towards GDNF-soaked agarose beads. BSA-soaked agarose beads were used as negative controls. Agarose beads are denoted by white circles. Note that mock transfected, GFRα1-expressing and RET/GFRα1-expressing cells form clusters of adherent cells (denoted by arrowhead) with BSA-soaked beads after 3 days, whereas RET/GFRα1 cells migrating towards GDNF bead are dissociated.
(§5) 3.5 cm dishes were coated with collagen I solution and 20,000 cells were seeded on the coated dish. GDNF-soaked agarose beads, prepared as described (Sainio et al., 1997), were put on the gel before it solidified. Cells around the beads were photographed daily.
(§6) In another chemotaxis assay, RET/GFRα1-, GFRα1- and mock-transfected MDCK cells were seeded on culture dishes coated with collagen I. Agarose beads were soaked in GDNF (10 ng/μl) or 1% BSA. A bead was placed on top of the soft collagen, and cells were monitored for 3 days.

[4] = system: RET/GFRα1-expressing MDCK cells; assay: as above; type: cell-based, dog; conditions: beads soaked in GDNF 10 ng/μl; collagen I; 3 days
Excerpt: as §4, §5, §6

[5] = system: mock-transfected MDCK cells; assay: as above; type: cell-based, dog; conditions: beads soaked in GDNF 10 ng/μl; collagen I; 3 days
Excerpt: as §4, §5, §6

RET = target: T1, RET (UniProt P07949+Q62997); assay: RET phosphorylation in RET/GFRα1-expressing MDCK cells; type: cell-based, dog
T1 construct: expressed in transfected cells
Description: FIG. 4D: Dose-dependent activation of RET by GDNF in RET/GFRα1-expressing MDCK cells. […]. […] The numbers below the lanes indicate the fold of induction of RET tyrosine kinase. IP, immunoprecipitation; WB, Western blotting; P-tyr, phospho-tyrosine. The results are representative of three independent experiments.
To detect MET activation, GFRα1- and RET/GFRα1-expressing MDCK or SHEP cells were starved overnight in MEM or RPMI 1640 with 1% FCS, respectively, and in serum-free medium for 2 h prior the induction. After 15 min incubation at 37° C. with GDNF (at indicated concentrations) or with 50 ng/ml HGF, cells were lysed as described. Cleared cell lysates were incubated with anti-MET antibodies (Santa Cruz Biotechnologies, Inc.) overnight at 4° C. Immunoprecipitates were collected with protein A-SEPHAROSE (Amersham Pharmacia Biotech), washed, separated by SDS-PAGE and transferred to HYBOND-ECL membranes. Membranes were immunoblotted with anti-phospho-tyrosine antibodies (Upstate Group Inc.) or anti-MET antibodies.
The above procedure was also followed to detect RET phosphorylation in RET/GFRα1-expressing MDCK, however, for these experiments, anti-RET antibodies (Santa Cruz Biotechnologies, Inc.) were used for the immunoprecipitation and immunoblotting.

MET [6] = assay: MET phosphorylation in Neuro-2A neuroblastoma cells; type: cell-based
MET [7] = assay: MET activation in GFRα1-transfected COS7 cells; type: cell-based
[8] = GDNF 100 ng/ml added to both chambers

T1 sequence (P07949 29-1114): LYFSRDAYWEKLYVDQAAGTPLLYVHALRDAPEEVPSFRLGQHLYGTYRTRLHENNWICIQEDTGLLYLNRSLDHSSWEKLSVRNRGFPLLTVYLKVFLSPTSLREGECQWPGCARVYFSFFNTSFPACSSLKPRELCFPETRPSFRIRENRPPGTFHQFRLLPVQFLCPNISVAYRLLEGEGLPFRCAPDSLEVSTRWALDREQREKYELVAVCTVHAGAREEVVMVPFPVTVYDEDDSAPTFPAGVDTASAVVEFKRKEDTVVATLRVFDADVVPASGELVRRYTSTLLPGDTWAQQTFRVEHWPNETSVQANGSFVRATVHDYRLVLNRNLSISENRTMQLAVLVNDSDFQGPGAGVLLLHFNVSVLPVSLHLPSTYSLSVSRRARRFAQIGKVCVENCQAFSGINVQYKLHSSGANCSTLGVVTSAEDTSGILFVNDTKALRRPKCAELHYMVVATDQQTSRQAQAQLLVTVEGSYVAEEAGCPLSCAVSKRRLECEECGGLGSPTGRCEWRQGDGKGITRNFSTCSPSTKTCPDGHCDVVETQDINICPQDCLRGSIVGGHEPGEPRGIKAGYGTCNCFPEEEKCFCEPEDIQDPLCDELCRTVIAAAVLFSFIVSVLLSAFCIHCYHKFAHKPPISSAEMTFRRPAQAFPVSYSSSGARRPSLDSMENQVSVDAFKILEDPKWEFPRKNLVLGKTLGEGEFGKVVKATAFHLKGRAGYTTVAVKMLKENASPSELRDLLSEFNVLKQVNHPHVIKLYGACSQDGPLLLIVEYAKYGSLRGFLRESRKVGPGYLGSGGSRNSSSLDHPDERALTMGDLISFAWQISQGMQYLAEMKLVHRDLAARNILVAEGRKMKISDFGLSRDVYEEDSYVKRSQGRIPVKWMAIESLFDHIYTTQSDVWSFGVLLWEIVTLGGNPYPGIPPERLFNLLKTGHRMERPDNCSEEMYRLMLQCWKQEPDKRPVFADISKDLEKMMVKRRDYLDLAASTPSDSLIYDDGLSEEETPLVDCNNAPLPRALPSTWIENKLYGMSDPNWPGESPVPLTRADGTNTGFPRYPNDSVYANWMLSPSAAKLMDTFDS
T1 sequence (Q62997 25-430 limits assumed): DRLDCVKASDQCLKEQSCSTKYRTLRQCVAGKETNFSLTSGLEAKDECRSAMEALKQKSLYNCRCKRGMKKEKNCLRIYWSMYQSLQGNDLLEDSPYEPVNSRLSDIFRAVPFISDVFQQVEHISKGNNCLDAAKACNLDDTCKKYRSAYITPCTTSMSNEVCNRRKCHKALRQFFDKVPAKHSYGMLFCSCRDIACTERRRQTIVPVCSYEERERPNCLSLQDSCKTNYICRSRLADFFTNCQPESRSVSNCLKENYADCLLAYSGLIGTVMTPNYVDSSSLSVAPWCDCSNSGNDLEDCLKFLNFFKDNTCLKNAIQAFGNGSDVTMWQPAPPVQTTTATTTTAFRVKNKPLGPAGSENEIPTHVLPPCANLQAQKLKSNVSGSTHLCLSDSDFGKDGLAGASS

B1: GDNF: recombinant glial cell line-derived neurotrophic factor from Cephalon Inc. (baculovirus-infected insect cells) or R&D Systems, Inc. (mouse myeloma NSO) (protein, UniProt P39905 78-211, looked up)
Glial cell line-derived …: SPDKQMAVLPRRERNRQAAAANPENSRGKGRRGQRGKNRGCVLTAIHLNVTDLGLGYETKEELIFRYCSGSCDAAETTYDKILKNLSRNRRLVSDKVGQACCRPIAFDDDLSFLDDNLVYHILRKHSAKRCGCI
What does the source list for B1?
branching tubule formation (wild-type MDCK cells; ligand 100 ng/ml, 3-D collagen gel): did not; branching tubule formation (wild-type MDCK cells; mock-transfected MDCK cells used as controls): did not from branching tubules; chemotactic response ([1]; Boyden chamber, 48 h): did not demonstrate a chemotactic response; migration with ligand in both chambers (chemokinesis) [1, 8]: only slightly reduced; chemotactic migration ([2]; Boyden chamber, 48 h): induced chemotactic migration; migration with ligand in both chambers compared to the maximal chemotactic response (chemokinesis) [2, 8]: reduced threefold; migration towards soaked agarose bead [3]: Neither GFRα1-expressing, RET deficient cells nor mock-transfected cells, however, were attracted; migration towards soaked agarose bead [4]: actively migrated towards the source of GDNF; migration towards soaked agarose bead [5]: Neither GFRα1-expressing, RET deficient cells nor mock-transfected cells, however, were attracted; GDNF concentration at which RET phosphorylation reached saturation (RET): 10 ng/mL; GDNF concentration at which RET phosphorylation was observed (RET): 0.1 pg/mL; time to RET activation (RET; data not shown): ≥ 2 h; MET phosphorylation (MET [6]): induced MET phosphorylation; MET activation (MET [7]): takes place

From patent US20080070264A1, “Intracellular Signaling-Induced Ret-Independent Gdnf Receptor-Effected Morphological Changes” (JPMORGAN CHASE BANK N.A., priority 2003, published 2008)
